Results taken from article PMC3949526, “The structure of an authentic spore photoproduct lesion in DNA suggests a basis for recognition”.

B1: non-SP DNA 16-mer (dsDNA)
DNA 1: ATCCGTTATAACGGAT
DNA 2: ATCCGTTATAACGGAT
B2: SP DNA 16-mer (dsDNA)
DNA 1: ATCCGTTATAACGGAT
DNA 2: ATCCGTTATAACGGAT
modifications: spore photoproduct (5-thyminyl-5,6-dihydrothymine) linking T6 and T7 in each strand

Experiments:
[1] = molecular target: T1, N-terminal fragment of MMLV reverse transcriptase (fingers and palm domains) (Moloney murine leukemia virus, UniProt P03355 683-937); assay: X-ray crystallography (1.72 A); host-guest complex; undamaged DNA; Crystallization: protein 2 mM in 50 mM MES pH 6.0, 0.3 M NaCl, 1 mM DTT; DNA 2.5 mM duplex in 10 mM HEPES pH 7.0, 10 mM MgCl2; crystallization buffer and temperature not given in the material; details: protein: recombinant; tags: 6xHis tag removed with thrombin; chain copies: 2; blunt; self-complementary, 2 copies of one strand
[2] = molecular target: T1, N-terminal fragment of MMLV reverse …; assay: X-ray crystallography (2.14 A); host-guest complex; SP lesions in central 10 bp, free of protein contacts; Crystallization: protein 2 mM in 50 mM MES pH 6.0, 0.3 M NaCl, 1 mM DTT; DNA 2.5 mM duplex in 10 mM HEPES pH 7.0, 10 mM MgCl2; crystallization buffer and temperature not given in the material; details: protein: recombinant; tags: 6xHis tag removed with thrombin; chain copies: 2; blunt; self-complementary, 2 copies of one strand

T1 sequence (P03355 683-937): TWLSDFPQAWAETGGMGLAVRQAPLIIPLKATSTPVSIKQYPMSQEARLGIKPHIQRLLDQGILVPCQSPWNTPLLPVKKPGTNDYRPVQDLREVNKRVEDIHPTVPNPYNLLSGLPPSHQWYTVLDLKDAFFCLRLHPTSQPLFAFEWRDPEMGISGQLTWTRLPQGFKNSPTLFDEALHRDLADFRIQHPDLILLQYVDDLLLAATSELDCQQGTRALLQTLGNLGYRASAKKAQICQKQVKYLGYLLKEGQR

Binder	binding result [1]	binding result [2]
B1	binds	–
B2	–	binds
